Bridge positions count the residues as written; N and C are the ends. Square brackets hold non-standard residues; d marks the D form. Ends that are not written are not given here. NMeR = CN[C@@H](CCCNC(=N)N)C(=O)O
Target: T1, recombinant human integrin α4β7 (Homo sapiens, UniProt P13612+P26010)
T1 construct: purchased R&D Systems 5397-A30
T1 sequence (P13612 34-970 limits assumed): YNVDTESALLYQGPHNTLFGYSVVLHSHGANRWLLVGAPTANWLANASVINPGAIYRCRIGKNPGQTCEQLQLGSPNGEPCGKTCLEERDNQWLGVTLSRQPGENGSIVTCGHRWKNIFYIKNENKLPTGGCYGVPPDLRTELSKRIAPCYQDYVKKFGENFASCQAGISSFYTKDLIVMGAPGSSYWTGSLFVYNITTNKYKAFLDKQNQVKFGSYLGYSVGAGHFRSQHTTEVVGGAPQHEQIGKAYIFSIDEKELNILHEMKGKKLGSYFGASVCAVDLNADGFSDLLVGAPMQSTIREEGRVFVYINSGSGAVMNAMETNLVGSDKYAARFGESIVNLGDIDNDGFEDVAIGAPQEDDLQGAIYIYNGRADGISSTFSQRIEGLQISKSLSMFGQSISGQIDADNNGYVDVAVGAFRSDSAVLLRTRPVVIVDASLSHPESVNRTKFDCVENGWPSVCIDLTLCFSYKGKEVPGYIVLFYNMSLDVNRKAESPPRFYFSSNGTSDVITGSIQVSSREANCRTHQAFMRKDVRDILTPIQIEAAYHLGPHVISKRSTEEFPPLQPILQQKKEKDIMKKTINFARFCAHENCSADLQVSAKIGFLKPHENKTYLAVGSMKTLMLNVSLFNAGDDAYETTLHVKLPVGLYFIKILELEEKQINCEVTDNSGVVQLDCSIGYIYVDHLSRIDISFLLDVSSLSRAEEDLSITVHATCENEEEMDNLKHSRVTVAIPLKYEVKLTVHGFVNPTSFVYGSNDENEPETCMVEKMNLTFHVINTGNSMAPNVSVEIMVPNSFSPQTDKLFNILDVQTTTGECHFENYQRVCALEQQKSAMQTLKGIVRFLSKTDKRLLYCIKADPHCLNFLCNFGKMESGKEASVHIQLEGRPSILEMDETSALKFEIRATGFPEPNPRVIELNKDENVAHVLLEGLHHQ
T1 sequence (P26010 20-723 limits assumed): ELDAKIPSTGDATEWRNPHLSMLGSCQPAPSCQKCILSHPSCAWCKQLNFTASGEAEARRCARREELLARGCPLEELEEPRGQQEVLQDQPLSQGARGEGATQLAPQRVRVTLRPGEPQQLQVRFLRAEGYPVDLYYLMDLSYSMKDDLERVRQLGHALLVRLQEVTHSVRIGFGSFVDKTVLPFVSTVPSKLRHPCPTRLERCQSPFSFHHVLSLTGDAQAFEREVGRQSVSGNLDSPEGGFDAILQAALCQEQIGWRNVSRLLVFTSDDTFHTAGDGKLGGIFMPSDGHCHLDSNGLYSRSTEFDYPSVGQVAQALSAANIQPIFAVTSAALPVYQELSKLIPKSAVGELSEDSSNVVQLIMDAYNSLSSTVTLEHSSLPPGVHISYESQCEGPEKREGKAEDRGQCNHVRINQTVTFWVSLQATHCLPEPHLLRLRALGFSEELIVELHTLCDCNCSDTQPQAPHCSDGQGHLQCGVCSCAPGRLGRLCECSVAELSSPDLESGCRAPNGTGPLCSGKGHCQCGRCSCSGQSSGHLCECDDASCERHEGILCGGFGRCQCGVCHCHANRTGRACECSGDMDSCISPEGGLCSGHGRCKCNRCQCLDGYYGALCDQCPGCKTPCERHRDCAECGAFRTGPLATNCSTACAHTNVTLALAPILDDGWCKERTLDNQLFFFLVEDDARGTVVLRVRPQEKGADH
Test: α4β7-MAdCAM Competition ELISA
Format: binding
Settings: N-Me-Arg substituted, as compared to SEQ ID NO:39
Protocol: α4β7-MAdCAM Competition ELISA
A nickel coated plate (Pierce # 15442) was coated with recombinant human integrin α4β7 (R&D Systems #5397-A30) at 800 ng/well and incubated at room temperature with shaking for 1 hr. The solution was then remove by shaking and blocked with assay buffer (50 mM Tris-HCl pH7.6, 150 mM NaCl, 1 mM MnCl2, 0.05% Tween-20 and 0.5% BSA) at 250 ul/well. The plate was then incubated at room temperature for 1 hr. Each well was washed 3 times with wash buffer (50 mM Tris-HCl pH7.6, 100mM NaCl, 1 mM MnCl2, 0.05% Tween-20). To each well was added 25 ul of a serial dilution (3-fold dilutions in assay buffer) of peptides starting at 20 μM. 25 ul of recombinant human MAdCAM-1 (R&D Systems #6056-MC) was then added to each well at a fixed concentration 20 nM. The final starting peptide concentration was 10 μM, and the final MAdCAM-1 concentration was 10 nM. The plates were then incubated at room temperature for 1 hr to reach binding equilibrium. The wells were then washed three times with wash buffer. 50 ul of mouse anti-human IgG1-HRP (Invitrogen # A10648) diluted in 1:2000 in assay buffer was then added to each well. The wells were incubated at room temperature for 45 min with shaking. The wells were then washed 3 times with wash buffer. […] The reaction was stopped with 2N H2SO4 and absorbance was read at 450 nm.

SEQ ID NO: 48: integrin antagonist peptide substituted with N-Me-Arg (C[NMeR]SDTLCK; disulfide 1-7)
potency for α4β7 in ELISA: increased potency

Reference: US20200017549A1, “NOVEL a4B7 PEPTIDE ANTAGONISTS” (Protagonist Therapeutics, Inc., priority 2013, published 2020)
